Laboratory results from article PMC7722741, “The bacterial multidrug resistance regulator BmrR distorts promoter DNA to activate transcription”.

Biological target: BmrR;RNAP-sigmaA holoenzyme (Bacillus subtilis;Bacillus subtilis, UniProt P39075;P20429;P37870;P37871;O35011;O31718;P06224 …, |)
Assay: EMSA; TPP 500 uM; heparin challenge; stable open complex stated in peer review file; EMSA: 10 mM HEPES pH 7.5, 100 mM KCl, 5 mM MgCl2, 3 mM DTT, 1 h room temperature, 0.75 uM RNAP, 0.5 uM DNA, 0 or 2 uM BmrR, 0 or 500 uM TPP, heparin 100 ug/ml when indicated; 5% TBE gel
Details: protein: recombinant;native; tags: ;; chain copies: 2;2;1;1;1;1;1

Binder | binding result
Pbmr-2 (mixed) DNA 1: TTTAGAAAGATTTTGCAAATCCGTTGACTCTCCCCTAGGAGGAGGTCTTATAATGGGAGCTGTCACGGATGC DNA 2: GCATCCGTGACAGCTCCCATTATAAGACCTCCTCCTAGGGGAGAGTCAACGGATTTGCAAAATCTTTCTAAA | binds
Pbmr-wt1 (dsDNA) DNA 1: TTTAGAAAGATTTTGCAAATCCGTTGACTCTCCCCTAGGAGGAGGTCTTACAGTATAAGGGATACACACTTG DNA 2: CAAGTGTGTATCCCTTATACTGTAAGACCTCCTCCTAGGGGAGAGTCAACGGATTTGCAAAATCTTTCTAAA | binds
